We go through seven molecules from patent publication US20220162328A1 (SHANDONG BOAN BIOTECHNOLOGY, published 2022).

The labels stand for the following.
B1: IL4R-BA173-IgG4 (antibody, V domains shown)
VH: QVQLVESGGGVVQPGRSLRLSCAASGFTFSSYAMHWVRQAPGKGLEWVAVISYDGSNKYYADSVKGRFTISRDNSKNTLYLQMNSLRAEDTAVYYCARGLTTVRGVLYWGQGTLVTVSS
VL: DIVMTQSPSTLSASVGDRVTITCRASQSISTRLAWYQQKPGKAPKLLVYWASSLESGVPSRFSGSGSGTEFTLAISSLQPDDFGTYYCQQYTSYSWTFGQGTKLEIKR
notes: also called IL4RQ6-BA173
B2: IL4R-BA167-IgG4 (antibody, V domains shown)
VH: B1 VH
VL: EIVMTQSPSSLSASLGDRVTITCRASQNIGSRLAWYQQKPGKAPKLLIYKASSLESGVPSRFSGSGSGTEFTLTISSLQPDDFATYYCQQYNSYSWTFGQGTKLEIKR
notes: also called IL4RQ6-BA167
B3: IL4R-BA030-IgG4 (antibody, V domains shown)
VH: QVQLVESGGGVVQPGRSLRLSCAASGFTFSSYAIHWVRQAPGKGLEWVAVISYDGSKKYYADSVKGRFTISRDNSKNTLYLQMNSLRAEDTAVYYCAREYYYGMDVWGQGTTVTVSS
VL: DIVMTQSPSTLSASVGDRVTITCRASQSISNWLAWYQQKPGKAPKRLIYKASSLESGVPSRFSGSGSGTEFTLTISSLQPDDFATYYCQQYNRYFTFGQGTKLEIKR
notes: also called IL4RQ14-BA030
B4: Dupilumab (antibody, human IgG4 S228P, kappa, V domains shown)
VH: EVQLVESGGGLEQPGGSLRLSCAGSGFTFRDYAMTWVRQAPGKGLEWVSSISGSGGNTYYADSVKGRFTISRDNSKNTLYLQMNSLRAEDTAVYYCAKDRLSITIRPRYYGLDVWGQGTTVTVSS
VL: DIVMTQSPLSLPVTPGEPASISCRSSQSLLYSIGYNYLDWYLQKSGQSPQLLIYLGSNRASGVPDRFSGSGSGTDFTLKISRVEAEDVGFYYCMQALQTPYTFGQGTKLEIKR
B5: BA1301 (antibody, IgG4, V domains shown)
VH: QVQLVESGGGVVQPGRSLRLSCAASGLTFSSYAMHWVRQAPGKGLEWVAVISYDGSNKYYADSVKGRFTISRDNSKNTLYLQMNSLRAEDTAVYYCARGFGYFDLWGRGTLVTVSS
VL: DIQMTQSPSTLSASVGDRVTITCRASQSITRRLAWYQQKPGKAPKLLIYKASSLESGVPSRFSGSGSGTEFTLTISSLQPDDFATYYCQQYVSFSRTFGQGTKVEIKR
notes: also called IL4RQ29-BA1301
B6: BA420 (antibody, IgG4, V domains shown)
VH: QVQLVESGGGAVQPGRSLRVSCAASGFTFSSHGMDWVRQVPGKGLEWVAVISYDGKKKYYADSVKGRFTISRDNSKNTLYLQMNSLRAEDTAIYYCVKESRYYYGMDVWGQGTTVTVSS
VL: DIVMTQSPSTLSASVGDRVTITCRASPSISSWLAWYQQKPGKAPKVLIYKSSRLESGVPSRFSGNGSGTEFTLTISSLQPDDFATYYCQQYNGYSWTFGQGTKVEIKR
notes: also called IL4RQ24-BA420
B7: BA034 (antibody, IgG4, V domains shown)
VH: B6 VH with G8R
VL: B6 VL with V3Q, P27Q, I29F, S30N, V46L, N65S
notes: also called IL4RQ14-BA034

One may read the IC50 as the concentration at which inhibition is half-maximal. A low value points to greater potency. The EC50 is the midpoint of the concentration-response curve. A higher EC50 goes with lower potency in that assay.

Residue numbers refer to the chain shown, from its start.

The target in the first experiment is T1, receptors of IL4/IL13 on TF-1 cells and PBMC (IL4 receptor) (human, UniProt P24394 26-825).
T1 sequence (looked up): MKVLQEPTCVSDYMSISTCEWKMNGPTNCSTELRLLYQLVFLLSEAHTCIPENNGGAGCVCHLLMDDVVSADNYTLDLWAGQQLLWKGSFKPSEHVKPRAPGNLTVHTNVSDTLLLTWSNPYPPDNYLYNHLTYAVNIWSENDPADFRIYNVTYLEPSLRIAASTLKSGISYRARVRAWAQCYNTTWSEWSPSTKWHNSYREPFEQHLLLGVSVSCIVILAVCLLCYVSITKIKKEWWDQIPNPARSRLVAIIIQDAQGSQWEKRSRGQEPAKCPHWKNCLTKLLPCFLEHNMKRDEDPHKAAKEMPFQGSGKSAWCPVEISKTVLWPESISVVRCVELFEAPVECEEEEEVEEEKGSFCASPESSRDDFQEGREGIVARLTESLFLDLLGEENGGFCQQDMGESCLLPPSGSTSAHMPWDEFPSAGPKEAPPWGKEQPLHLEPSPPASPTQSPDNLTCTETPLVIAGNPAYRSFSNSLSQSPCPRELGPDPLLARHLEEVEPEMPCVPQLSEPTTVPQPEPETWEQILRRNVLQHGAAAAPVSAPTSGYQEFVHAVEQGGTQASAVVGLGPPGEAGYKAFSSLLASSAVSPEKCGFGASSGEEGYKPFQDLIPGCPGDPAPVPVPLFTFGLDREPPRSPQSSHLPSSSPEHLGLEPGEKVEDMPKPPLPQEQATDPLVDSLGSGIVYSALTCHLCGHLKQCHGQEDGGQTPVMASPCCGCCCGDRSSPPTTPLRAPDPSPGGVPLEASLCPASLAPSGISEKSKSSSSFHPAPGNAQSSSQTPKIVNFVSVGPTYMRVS
Briefly: cell-based or functional assay.
B1: the “IC50 (IL4, ng/mL), PBMC, inhibition of IL4-promoted proliferation” value (“IC50 (IL4, ng/mL), PBMC, inhibition” for short) turned out to be 1.02 ng/mL; the “IC50 (IL4, ng/mL), TF-1 Cells, inhibition of IL4-induced proliferation” value (“IC50 … inhibition of IL4-induced proliferation” for short) was 66 ng/mL; the “IC50 (IL13, ng/mL), TF-1 Cells, inhibition of IL13-induced proliferation” value (from here on “IC50 … inhibition of IL13-induced proliferation”) was 6 ng/mL.

Turning to B2, the “IC50 (IL4, ng/mL), PBMC, inhibition” value stood at 1.52 ng/mL; the “IC50 … inhibition of IL4-induced proliferation” value was found to be 139 ng/mL; the “IC50 … inhibition of IL13-induced proliferation” value turned out to be 5 ng/mL.

Turning to B3, the “IC50 (IL4, ng/mL), PBMC, inhibition” value worked out at 8.09 ng/mL; the “IC50 … inhibition of IL4-induced proliferation” value is 227 ng/mL; the “IC50 … inhibition of IL13-induced proliferation” value amounted to 9 ng/mL.

Regarding B4, the “IC50 (IL4, ng/mL), PBMC, inhibition” value worked out at 2.87 ng/mL; the “IC50 … inhibition of IL4-induced proliferation” value is 65 ng/mL; the “IC50 … inhibition of IL13-induced proliferation” value was found to be 9 ng/mL.

The target in a further experiment is T2, IL4R-Fc-biotin (UniProt P24394 26-232, biotinylated (sites not given)).
T2 construct: also called IL4R-Fc protein (Sinobiological Co., Ltd., 10402-H02H); not shown: Fc part
T2 sequence (looked up): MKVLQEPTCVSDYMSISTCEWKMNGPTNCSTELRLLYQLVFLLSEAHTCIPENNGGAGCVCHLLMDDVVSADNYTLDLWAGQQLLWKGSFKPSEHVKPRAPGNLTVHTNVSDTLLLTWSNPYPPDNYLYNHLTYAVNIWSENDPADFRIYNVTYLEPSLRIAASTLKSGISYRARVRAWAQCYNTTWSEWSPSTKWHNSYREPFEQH
Briefly: competition ELISA: IL4 coated, IL4R-Fc-biotin (0.4 µg/ml) with antibody dilutions. How it is done: IL4 (11846-HANE, Sinobiological Co., Ltd.) was coated at the concentration of 0.2 μg/ml in 100 μL/well at 4° C. overnight; 3% skimmed milk powder was used for blocking 1 h; at the same time, 50 μL of IL4R-Fc-biotin (0.4 μg/ml) and 50 μL of candidate antibody at different concentrations (16 μg/mL, 4 μg/mL, 1 μg/mL, 0.25 μg/mL, 0.0625 μg/mL, 0.015625 μg/mL, and 0.00390625 μg/mL), 100 μL in total, were added to the blocked ELISA plate and co-incubated at 37° C. for 1 h; after washing three times with PBST, […]/HRP (R&D, Cat. No.: 890803) was added, and incubated at 37° C. for 1 h; and 100 μL of TMB color developing solution (Beijing Meike Wande Co., Ltd., Cat. No.: 1001) was added to each well. Color development was stopped, after 10 min color development, with the addition of 50 μL of 2 M concentrated sulfuric acid, and OD450 was measured with a microplate reader.
Molecule B5 had an IC50 of 0.592 µg/mL.

For B1, the IC50 was determined as 0.354 µg/mL.

In turn, B2 yielded an IC50 of 0.458 µg/mL.

Molecule B3 had an IC50 of 0.343 µg/mL.

Take B6: the IC50 is 0.334 µg/mL.

Molecule B7 came in with an IC50 of 0.71 µg/mL.

Another experiment has as its target T3, human IL4R (10402-H08H, Sinobiological Co., Ltd.) (human, UniProt P24394 26-232).
T3 construct: Bought protein, coated on ELISA plates; also called IL4R-His protein; IL4R protein; not shown: His tag
T3 sequence (looked up): T2 sequence (looked up)
Briefly: ELISA: IL4R coated at graded concentrations (0.4-0 µg/ml), antibody fixed at 2 µg/ml. How it is done: CBS coating solution (pH 9.6 carbonic acid solution) was used to coat protein IL4R (10402-H08H, Sinobiological Co., Ltd.) at different concentrations (0.4 μg/ml, 0.2 μg/ml, 0.1 μg/ml, 0.05 μg/ml, 0.025 μg/ml, 0.0125 μg/ml, 0.00625 μg/ml and 0 μg/ml) in 100 μL/well at 4° C. overnight; 3% skimmed milk powder was used for blocking 1 h at 37° C.; 100 μL of candidate antibody at 2 μg/ml was added to each well and incubated at 37° C. for 1 h; and then goat anti-human IgG (H+L)/HRP (KPL, Cat. No.: 474-1006) was added, and incubated at 37° C. for 1 h. Color development was stopped, after 10 min color development, with the addition of 50 μL of 2 M H₂SO₄ to each well, and OD450 was measured with a microplate reader. Compared with the control antibody, 3 antibodies had close binding sensitivity to IL4R protein.
(In general: An ELISA detects its analyte on a solid surface through an enzyme-linked reagent.)
As for B1, the EC50 is 0.025 µg/mL.

For B2, the EC50 was 0.045 µg/mL.

On to B3, for which the midpoint of the response, the EC50, lay at 0.031 µg/mL.

The target of a further experiment is T2, IL4R-Fc-biotin. The experiment is described as follows: competition ELISA: IL4 coated, IL4R-Fc-biotin (0.4 µg/ml) pre-incubated with antibody dilutions. The method, then: IL4 (11846-HANE, Sinobiological Co., Ltd.) was coated at the concentration of 0.2 μg/ml in 100 μL/well at 4° C. overnight; 3% skimmed milk powder was used for blocking 1 h; at the same time, IL4R-Fc-biotin (0.4 μg/ml) and candidate antibody at different concentrations (30 μg/mL, 7.5 μg/mL, 1.875 μg/mL, […], 0.1171875 μg/mL and 0 μg/mL) were co-incubated at 37° C. for 1 h, then added to the blocked ELISA plate and co-incubated at 37° C. for another 1 h; then […]/HRP (R&D, Cat. No.: 890803) was added, and incubated at 37° C. for 1 h; color development was stopped, after 10 min color development, with the addition of 50 μL of 2M H₂SO₄ to each well. OD450 was measured with a microplate reader.
In the case of B1, the IC50 stood at 0.367 µg/mL.

Take B2: the IC50 came to 0.477 µg/mL.

B3 gave an IC50 of 0.346 µg/mL.

The target in a further experiment is T2, IL4R-Fc-biotin. Briefly: competition ELISA: IL13RA1 coated, IL4R-Fc-biotin (0.24 µg/ml) and IL13 (1 µg/ml) pre-incubated with antibody dilutions. The method, then: IL13RA1 (10943-H08H, Sinobiological Co., Ltd.) was coated at the concentration of 0.8 μg/ml in 100 μL/well at 4° C. overnight; 3% skimmed milk powder was used for blocking 1 h; at the same time, IL4R-Fc-biotin (0.24 μg/ml) and IL13 (1 μg/ml, 10369-HANE, Sinobiological Co., Ltd.) and candidate antibody at different concentrations (30 μg/mL, 7.5 μg/mL, 1.875 μg/mL, 0.46875 μg/mL, 0.1171875 μg/mL and 0 μg/mL) were co-incubated at 37° C. for 1 h, then added to the blocked ELISA plate and co-incubated at 37° C. for another 1 h; after washing three times with PBST, […]/HRP (R&D, Cat. No.: 890803) was added, and incubated at 37° C. for 1 h; and after washing four times with PBST, TMB was used for color development for 10 min. 50 μL of 2M H₂SO₄ was added to each well to stop color development. OD450 was measured with a microplate reader.
B1 displayed an IC50 of 0.302 µg/mL.

In turn, B2 had an IC50 of 0.407 µg/mL.

B3 gave an IC50 of 0.381 µg/mL.
